Source: article PMC4031664

Key:
Test in all cases: SPR
[1] = biological target: N-terminal human PrP fragment (PrP23–145) (human) (UniProt P04156)
[2] = biological target: N-terminally truncated PrP (PrP89–230) (mouse) (UniProt P04925)
[3] = biological target: N-terminally truncated human PrP90–231 (human) (UniProt P04156)
[4] = biological target: full-length PrP (PrP23–231) (mouse) (UniProt P04925)

Question: With “Quiescin-sulfhydryl oxidase (from UniProt O00391 30-747) (enzyme)” as the substance, how does the Kd [1] read?
Answer: 3.6 nM

Question: What about the Kd [2] of the same substance?
Answer: 312 nM

Question: What about the Kd [3] of the same substance?
Answer: 771 nM

Question: What about the Kd [4] of the same substance?
Answer: 2 nM
